This is an account of results in article PMC6987093, “Polymerase independent repression of FoxO1 transcription by sequence-specific PARP1 binding to FoxO1 promoter”.

The target in series [1] is T1, PARP1 (UniProt P09874 1-1014). In words: pull-down (FREP); EcoRI and BamHI release; EMSA: 0, 2, 5 or 10 ug PARP1 pre-incubated 30 min with 50 ng DNA probe (Thermo EMSA kit), nondenaturing PAGE; buffer, salt, pH and temperature not given in the. Conditions: label: 5' biotin. (In general: A gel shift assay detects complexes by their altered migration in electrophoresis.)
T1 sequence (P09874 whole entry): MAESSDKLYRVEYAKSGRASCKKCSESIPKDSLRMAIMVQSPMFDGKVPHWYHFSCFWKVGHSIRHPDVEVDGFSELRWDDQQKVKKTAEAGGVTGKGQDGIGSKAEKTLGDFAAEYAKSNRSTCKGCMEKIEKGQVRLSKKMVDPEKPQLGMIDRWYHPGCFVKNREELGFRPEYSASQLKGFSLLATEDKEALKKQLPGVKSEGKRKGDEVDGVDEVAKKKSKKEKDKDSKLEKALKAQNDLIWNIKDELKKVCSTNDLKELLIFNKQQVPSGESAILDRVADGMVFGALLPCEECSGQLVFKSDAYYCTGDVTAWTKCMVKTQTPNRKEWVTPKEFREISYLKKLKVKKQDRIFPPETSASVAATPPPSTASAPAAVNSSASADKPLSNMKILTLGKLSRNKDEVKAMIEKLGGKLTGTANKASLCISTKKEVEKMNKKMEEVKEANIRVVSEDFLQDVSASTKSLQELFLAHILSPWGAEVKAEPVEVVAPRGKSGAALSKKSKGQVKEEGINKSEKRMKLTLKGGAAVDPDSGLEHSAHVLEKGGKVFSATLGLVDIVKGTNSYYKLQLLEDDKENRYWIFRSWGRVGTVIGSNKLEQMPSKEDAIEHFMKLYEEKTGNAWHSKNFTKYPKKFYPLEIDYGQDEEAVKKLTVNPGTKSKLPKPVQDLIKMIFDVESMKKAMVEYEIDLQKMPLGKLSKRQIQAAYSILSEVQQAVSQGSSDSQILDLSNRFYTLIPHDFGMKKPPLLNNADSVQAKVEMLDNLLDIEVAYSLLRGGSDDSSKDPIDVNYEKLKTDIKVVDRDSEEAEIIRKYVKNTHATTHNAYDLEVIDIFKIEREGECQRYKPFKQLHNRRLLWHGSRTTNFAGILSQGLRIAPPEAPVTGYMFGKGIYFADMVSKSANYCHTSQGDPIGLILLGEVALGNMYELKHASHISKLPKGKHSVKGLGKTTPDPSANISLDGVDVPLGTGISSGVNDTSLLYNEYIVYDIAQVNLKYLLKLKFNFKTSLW

In series [2] the target is T1, PARP1. The series can be described thus: competition; 40-fold excess over FoxO1-R-B-biotin in FREP; EMSA: 0, 2, 5 or 10 ug PARP1 pre-incubated 30 min with 50 ng DNA probe (Thermo EMSA kit), nondenaturing PAGE; buffer, salt, pH and temperature not given in the.

B1: FoxO1-L-B-biotin (dsDNA)
DNA 1: AATGATACGGCGACCACCGAGGATCCTCACTGTATTCTTGAATTCTCGTATGCCGTCTTCGCTTG
DNA 2: CAAGCGAAGACGGCATACGAGAATTCAAGAATACAGTGAGGATCCTCGGTGGTCGCCGTATCATT
For the molecule B1, the binding result in series [1] is on record as “binds”.

B2: FoxO1-R-B-biotin (dsDNA)
DNA 1: AATGATACGGCGACCACCGAGGATCCTCTTGTGGTCTCTTCACGTTTACGAATTCTCGTATGCCGTCTTCTGCTTG
DNA 2: CAAGCAGAAGACGGCATACGAGAATTCGTAAACGTGAAGAGACCACAAGAGGATCCTCGGTGGTCGCCGTATCATT
As for B2, the binding result in series [1] is listed as “binds”.

B3: FoxO1-R-B (free competitor) (dsDNA)
DNA 1: AATGATACGGCGACCACCGAGGATCCTCTTGTGGTCTCTTCACGTTTACGAATTCTCGTATGCCGTCTTCTGCTTG
DNA 2: CAAGCAGAAGACGGCATACGAGAATTCGTAAACGTGAAGAGACCACAAGAGGATCCTCGGTGGTCGCCGTATCATT
Turning to B3, the binding result in series [2] is listed as “binds”.
